US20260115269A1, “MYC[…] CELL EPITOPES, MEGAPOOLS AND USES THEREOF” (La Jolla Institute for Immunology, priority 2022, published 2026)

How the values were obtained:
[1] = system: PBMCs from ATB participants; test: Fluorospot screen of 517 overlapping 15-mer peptides spanning TB vaccine candidate and IGRA antigens; format: cell-based, human; conditions: overlapping 15-mers; IGRA+ data from previous study
[2] = system: PBMCs from participants mid-treatment for ATB; test: Proteome-wide peptide library screen: ex vivo IFNγ and IL-17 Fluorospot, positive pools deconvoluted to individual epitopes; format: cell-based, human; conditions: n=21

Molecule: Rv3874: Mtb IGRA antigen, tested as peptides
- antigen recognition in ATB (n=21) compared with healthy IGRA+ participants (n=63) [1]: most frequently recognized
- antigen recognition in the proteome-wide screen [2]: most frequently recognized

B1: Rv0288: Mtb antigen, TB vaccine candidate antigen, tested as peptides (protein, UniProt P9WNK3 1-96, looked up)
ESAT-6-like protein EsxH: MSQIMYNYPAMLGHAGDMAGYAGTLQSLGAEIAVEQAALQSAWQGDTGITYQAWQAQWNQAMEDLVRAYHAMSSTHEANTMAMMARDTAEAAKWGG
modifications: tested as peptides
- antigen recognition in ATB (n=21) compared with healthy IGRA+ participants (n=63) [1]: most frequently recognized
- antigen recognition in the proteome-wide screen [2]: most frequently recognized

B2: Rv3615c: Mtb antigen included in the ESAT-6 free IGRA test (protein, UniProt P9WJD7 2-103, looked up)
ESX-1 secretion-associated …: TENLTVQPERLGVLASHHDNAAVDASSGVEAAAGLGESVAITHGPYCSQFNDTLNVYLTAHNALGSSLHTAGVDLAKSLRIAAKIYSEADEAWRKAIDGLFT
- antigen recognition in the proteome-wide screen [2]: most frequently recognized

B3: Rv1196: Mtb vaccine candidate antigen, tested as peptides (protein, UniProt L7N675 1-391, looked up)
PPE family protein PPE18: MVDFGALPPEINSARMYAGPGSASLVAAAQMWDSVASDLFSAASAFQSVVWGLTVGSWIGSSAGLMVAAASPYVAWMSVTAGQAELTAAQVRVAAAAYETAYGLTVPPPVIAENRAELMILIATNLLGQNTPAIAVNEAEYGEMWAQDAAAMFGYAAATATATATLLPFEEAPEMTSAGGLLEQAAAVEEASDTAAANQLMNNVPQALQQLAQPTQGTTPSSKLGGLWKTVSPHRSPISNMVSMANNHMSMTNSGVSMTNTLSSMLKGFAPAAAAQAVQTAAQNGVRAMSSLGSSLGSSGLGGGVAANLGRAASVGSLSVPQAWAAANQAVTPAARALPLTSLTSAAERGPGQMLGGLPVGQMGARAGGGLSGVLRVPPRPYVMPHSPAAG
modifications: tested as peptides
- antigen recognition in ATB (n=21) compared with healthy IGRA+ participants (n=63) [1]: most frequently recognized
